Experimental data taken from patent publication US20250109206A1.
Numbering of substitutions follows the chain as printed.

B1: Anti-CD3 Fab-001 (Fab, V domains shown)
VH: EVQLVESGGGLVQPGGSLRLSCAASGFTFNTYAMNWVRQAPGKGLEWVARIRSKYNNYATYYADSVKDRFTISRDDSQSILYLQMNSLKTEDTAVYYCVRHGNFGNSYVSWFAYWGQGTLVTVSS
VL: QAVVTQEPSLTVSPGGTVTLTCRSSTGAVTTSNYANWVQQKPDHLPRALIGGTNKRAPGTPARFSGSLLGDKAALTLSGVQPEDEAEYYCALWYSNLWVFGGGTKLTVL
B2: Anti-CD3 Fab-002 (Fab, V domains shown)
VH: B1 VH with A49G, D68G, Q78K, S79N, I80S, V99A
VL: B1 VL with T60V, L77I, V80A, E87I

Legend:
[1] = biological target: human recombinant CD3 δε heterodimer (human) (UniProt P07766); assay: SPR (Biacore), Fab captured on anti-human Fab chip, human CD3 δε heterodimer as analyte, 1:1 binding fit
[2] = biological target: human recombinant CD3 δε heterodimer (human) (UniProt P07766); assay: SPR (Biacore 8K), Fab captured, CD3 δε heterodimer as analyte
[3] = biological target: cynomolgus monkey recombinant CD3 δε heterodimer (cynomolgus) (UniProt Q95LI5); assay: SPR (Biacore), Fab captured on anti-human Fab chip, cyno CD3 δε heterodimer as analyte, 1:1 binding fit
Chain of cynomolgus monkey recombinant CD3 δε heterodimer (cynomolgus) (Q95LI5 22-117, stated change not applied, chain 1 of 2): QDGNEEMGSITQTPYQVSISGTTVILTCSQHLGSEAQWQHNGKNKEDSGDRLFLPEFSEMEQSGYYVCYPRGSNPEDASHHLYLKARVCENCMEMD
Chain of cynomolgus monkey recombinant CD3 δε heterodimer (cynomolgus) (Q95LI8 22-105, stated change not applied, chain 2 of 2, further chain): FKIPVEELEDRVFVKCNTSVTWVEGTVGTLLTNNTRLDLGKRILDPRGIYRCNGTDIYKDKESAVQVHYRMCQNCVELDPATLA

Chain of human recombinant CD3 δε heterodimer (human) (P07766 23-126, stated change not applied, chain 1 of 2): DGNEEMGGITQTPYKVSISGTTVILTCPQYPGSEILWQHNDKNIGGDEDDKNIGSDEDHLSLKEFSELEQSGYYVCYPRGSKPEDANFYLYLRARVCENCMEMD
Chain of human recombinant CD3 δε heterodimer (human) (P04234 22-105, stated change not applied, chain 2 of 2, further chain): as the sequence (Q95LI8 22-105, stated change not applied, chain 2 of 2, further chain) above, with V5I, K15N, V20I, T32S, N33D, N34I, A64T, N74S, L83V counted along it

kon [1] [M⁻¹ s⁻¹]	Kd [2] [nM]	Kd [3] [nM]	koff [3] [s⁻¹]	kon [3] [M⁻¹ s⁻¹]	Binder
162000	29	28.4	0.00448	158000	B1
433000	46	71.8	0.0113	157000	B2
